Consider one molecule from article PMC3551999.

In one data set the target is TBP;TFIIA (human;human, UniProt P20226;P52655;P52657 1-339;1-376;1-109, |). The data set can be described thus: smFRET.
The target in the next data set is TBP (human, UniProt P20226 1-339). The data set can be described thus: smFRET.
Sequence of TBP (P20226 whole entry): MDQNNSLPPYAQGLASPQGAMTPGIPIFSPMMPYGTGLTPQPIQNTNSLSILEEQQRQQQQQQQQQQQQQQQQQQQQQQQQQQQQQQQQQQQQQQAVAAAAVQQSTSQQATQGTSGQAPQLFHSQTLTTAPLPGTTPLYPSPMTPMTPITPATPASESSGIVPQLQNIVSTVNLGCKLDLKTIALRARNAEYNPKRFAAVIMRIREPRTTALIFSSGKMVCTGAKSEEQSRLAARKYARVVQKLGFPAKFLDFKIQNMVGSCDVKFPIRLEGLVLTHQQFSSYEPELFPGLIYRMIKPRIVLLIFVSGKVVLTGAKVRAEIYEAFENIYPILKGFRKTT

Sequence of TBP;TFIIA (P20226 whole entry, chain 1 of 3): as the sequence (P20226 whole entry) above
Sequence of TBP;TFIIA (P52655 whole entry, chain 2 of 3): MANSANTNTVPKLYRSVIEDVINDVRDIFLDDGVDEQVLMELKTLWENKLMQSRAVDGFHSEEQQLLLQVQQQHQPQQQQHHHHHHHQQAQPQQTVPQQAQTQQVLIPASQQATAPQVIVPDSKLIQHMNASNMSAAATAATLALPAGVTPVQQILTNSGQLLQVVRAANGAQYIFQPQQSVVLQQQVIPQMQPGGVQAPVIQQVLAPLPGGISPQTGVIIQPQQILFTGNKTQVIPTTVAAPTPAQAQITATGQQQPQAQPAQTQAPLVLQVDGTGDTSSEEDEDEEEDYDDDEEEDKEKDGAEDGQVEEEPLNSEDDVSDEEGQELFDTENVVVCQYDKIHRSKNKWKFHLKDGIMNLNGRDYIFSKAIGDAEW
Sequence of TBP;TFIIA (P52657 whole entry, chain 3 of 3): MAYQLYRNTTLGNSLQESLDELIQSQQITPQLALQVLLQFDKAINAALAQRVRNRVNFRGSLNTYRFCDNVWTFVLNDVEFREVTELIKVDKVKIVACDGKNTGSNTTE

B1: TATA(A3) smFRET construct (mixed)
DNA 1: CAGGCTAAAAAAGGGACG
DNA 2: CGTCCCTTTTTTAGCCTGCACCACCACCACCACCACCA
DNA 3: TGGTGGTGGTGGTGGTGGT
Take B1: the binding result in the data set with TBP;TFIIA and with TBP was “binds” each time.
